{
  "source": "patent US20030207791A1",
  "about": "“Materials and methods relating to the treatment of leukaemias” (priority 2000, published 2003)",
  "molecules": {"B1": {"name": "p53-RAR: RAR fused C-terminally to the tetramerization domain present in p53 (protein)", "chain": "GEYFTLQIRGRERFEMFRELNEALELKDAQAGMASNSSSCPTPGGGHLNGYPVPPYAFFFPPMLGGLSPPGALTTLQHQLPVSGYSTPSPATIETQSSSSEEIVPSPPSPPPLPRIYKPCFVCQDKSSGYHYGVSACEGCKGFFRRSIQKNMVYTCHRDKNCIINKVTRNRCQYCRLQKCFEVGMSKESVRNDRNKKKKEVPKPECSESYTLTPEVGELIEKVRKAHQETFPALCQLGKYTTNNSSEQRVSLDIDLWDKFSELSTKCIIKTVEFAKQLPGFTTLTIADQITLLKAACLDILILRICTRYTPEQDTMTFSDGLTLNRTQMHNAGFGPLTDLVFAFANQLLPLEMDDAETGLLSAICLICGDRQDLEQPDRVDMLQEPLLEALKVYVRKRRPSRPHMFPKMLMKITDLRSISAKGAERVITLKMEIPGSMPPLIQEMLENSEGLDTLSGQPGGGGRDGGGLAPPPGSCSPSLSPSSNRSSPATHSP"}, "B2": {"name": "PML-RAR: leukaemia-associated chimeric transcription factor, fusion of PML and RAR (protein)", "chain": "MEPAPARSPRPQQDPARPQEPTMPPPETPSEGRQPSPSPSPTERAPASEEEFQFLRCQQCQAEAKCPKLLPCLHTLCSGCLEASGMQCPICQAPWPLGADTPALDNVFFESLQRRLSVYRQIVDAQAVCTRCKESADFWCFECEQLLCAKCFEAHQWFLKHEARPLAELRNQSVREFLDGTRKTNNIFCSNPNHRTPTLTSIYCRGCSKPLCCSCALLDSSHSELKCDISAEIQQRQEELDAMTQALQEQDSAFGAVHAQMHAAVGQLGRARAETEELIRERVRQVVAHVRAQERELLEAVDARYQRDYEEMASRLGRLDAVLQRIRTGSALVQRMKCYASDQEVLDMHGFLRQALCRLRQEEPQSLQAAVRTDGFDEFKVRLQDLSSCITQGKDAAVSKKASPEAASTPRDPIDVDLPEEAERVKAQVQALGLAEAQPMAVVQSVPGAHPVPVYAFSIKGPSYGEDVSNTTTAQKRKCSQTQCPRKVIKMESEEGKEARLARSSPEQPRPSTSKAVSPPHLDGPPSPRSPVIGSEVFLPNSNHVASGAGEAIETQSSSSEEIVPSPPSPPPLPRIYKPCFVCQDKSSGYHYGVSACEGCKGFFRRSIQKNMVYTCHRDKNCIINKVTRNRCQYCRLQKCFEVGMSKESVRNDRNKKKKEVPKPECSESYTLTPEVGELIEKVRKAHQETFPALCQLGKYTTNNSSEQRVSLDIDLWDKFSELSTKCIIKTVEFAKQLPGFTTLTIADQITLLKAACLDILILRICTRYTPEQDTMTFSDGLTLNRTQMHNAGFGPLTDLVFAFANQLLPLEMDDAETGLLSAICLICGDRQDLEQPDRVDMLQEPLLEALKVYVRKRRPSRPHMFPKMLMKITDLRSISAKGAERVITLKMEIPGSMPPLIQEMLENSEGLDTLSGQPGGGGRDGGGLAPPPGSCSPSLSPSSNRSSPATHSP"}},
  "key": {"GST-NCoR": {"molecular_target": "T1, GST-NCoR (Mus musculus, UniProt Q60974)", "T1 construct": "made in house", "T1 sequence (Q60974 1782-2453)": "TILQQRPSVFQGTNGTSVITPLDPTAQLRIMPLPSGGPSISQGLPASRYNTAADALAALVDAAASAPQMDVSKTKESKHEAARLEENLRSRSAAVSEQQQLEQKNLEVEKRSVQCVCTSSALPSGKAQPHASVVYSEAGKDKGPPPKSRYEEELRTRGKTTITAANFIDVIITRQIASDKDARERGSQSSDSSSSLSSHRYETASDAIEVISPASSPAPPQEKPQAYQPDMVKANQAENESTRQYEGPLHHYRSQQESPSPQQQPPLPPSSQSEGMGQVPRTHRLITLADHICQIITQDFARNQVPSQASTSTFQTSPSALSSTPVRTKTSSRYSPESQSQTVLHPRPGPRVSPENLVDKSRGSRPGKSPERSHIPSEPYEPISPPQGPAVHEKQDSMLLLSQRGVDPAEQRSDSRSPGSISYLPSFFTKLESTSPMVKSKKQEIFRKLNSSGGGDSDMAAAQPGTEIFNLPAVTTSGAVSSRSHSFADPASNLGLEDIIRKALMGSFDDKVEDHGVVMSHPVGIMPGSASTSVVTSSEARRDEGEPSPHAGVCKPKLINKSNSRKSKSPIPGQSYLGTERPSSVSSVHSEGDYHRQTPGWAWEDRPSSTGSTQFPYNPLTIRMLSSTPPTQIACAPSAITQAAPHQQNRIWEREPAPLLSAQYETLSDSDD", "experiment": "GST-NCoR pull-down assay with in vitro translated 35S labelled proteins", "type": "binding", "settings": "increasing amounts of GST-NCoR", "procedure": "FIG. 1. Enhanced recruitment of NCoR by PML-RAR is due to the coiled coil region of PML. Increasing amounts of GST -NCoR (from 150 ng to 10 μg) coupled to agarose beads were incubated with the indicated in vitro translated, ^35-S labelled proteins. On the left, a schematic representation of the in vitro translated products, with the tripartite motif of PML highlighted (R, RING finger; B, B boxes; CC, coiled coil). The input lanes are loaded with the same amounts used in the pull-down experiments.\nRecruitment of the NCoR-HDAC complex is crucial for the transforming potential of PML-RAR. At low concentrations of RA (1-100 nM), the stability of the PML-RAR-NCoR complex is higher than that of the RAR-NCoR complex (Grignani et al., 1998; He et al., 1998; Lin et al., 1998). […] Pull-down assays were performed by incubation of in vitro translated, ^35S labelled PML-RAR or RAR with GST-NCoR coupled to agarose beads.\nGST-NCoR (1782-2453) or GST-NCoR (RDIII) purification and in vitro interaction experiments were performed as described, incubating the indicated amounts of GST-NCoR attached to a constant amount of glutathione-agarose beads in the presence of the appropriate ^35-S labelled, in vitro translated proteins(Gelmetti et al., 1998; Grignani et al., 1998; Zamir et al., 1996). The input lanes represent 100% of the total. Coimmunoprecipitation experiments were performed as described(Gelmetti et al., 1998), using extracts from transiently transfected COS-1 cells, or in vitro translated products."}, "[1]": {"test_system": "RARE-G5-TATA reporter (GAL4-VP16 driven transcription)", "experiment": "Transcriptional repression of GAL4-VP16 activation, RARE-G5-TATA reporter, transfected HeLa cells", "type": "cell-based", "procedure": "FIG. 2. Role of the coiled coil of PML in the altered transcriptional properties of PML-RAR (A): Transcriptional repression by RAR and fusion proteins. Hela cells were co-transfected with the RARE-G5-TATA reporter in the absence (C) or presence of increasing amounts (50, 100, 250, 1000 ng) of the indicated expression vectors and then harvested 48 hours after transfection. Levels of expression of RAR and fusion proteins after transfection are shown in (C). (B) RARE and NCoR dependent transcriptional repression by RAR and fusion proteins. Hela cells were co-transfected with the RARE-G5-TATA or the G5-TATA, reporters and 1 μg of control expression vector (C), RAR (R), PML-RAR (P/R) and their respective AHT derivatives, as indicated. (D) RA sensitivity of RAR and fusion proteins. Cells were co-transfected with 500 ng of the indicated expression vectors. 24 hours after transfection, RA was added at the following concentrations: 1, 10, 100 nM, 1, 10 μM, and cells were harvested after additional 24 hours.\nTo test this hypothesis, the inventors devised an artificial, reporter system to measure transcriptional repression by RAR and chimeric proteins. The RARE-G5-TATA reporter construct has five GAL4 response elements fused to a minimal promoter region: upstream of the GAL4 sites, a RA responsive element (RARE) allows binding of RAR (or fusion proteins). […] RAR over-expression led to decrease of GAL4-VP16 activation, with 30-40% repression observed with the maximal amount of co-transfected RAR expression vector (1 μg, FIG. 2A), while it exerted no effect on the GAL4-VP16-mediated activation of a cognate promoter lacking the RARE (FIG. 2B). A RAR construct carrying the AHT mutation, which abrogates NCoR binding (Horlein et al., 1995), was unable to prevent activation of the RARE-G5-TATA promoter by GAL4-VP16 (FIG. 2B).\nNext, the inventors tested the transcriptional regulatory functions of PML-RAR (or derivatives). […] At the maximal concentration tested (1 μg), the inventors observed 80-90% repression with PML-RAR and 30-40% with RAR (FIG. 2A).\nTransient transfection of HeLa, NIH 3T3, SAOS and C33A cells was performed by calcium phosphate as described (Lillie and Green, 1989; Minucci et al., 1994). p53-/- MEFs were transiently transfected by lipofection as described (Pearson et al., 2000). Light units were normalized to expression of a co-transfected β-galactosidase expression plasmid. Results are presented as the mean+standard deviations of at least three independent experiments."}},
  "data": [
    {"molecule": "B1", "values": [
      {"measurement": "binding to GST-NCoR", "setting": "GST-NCoR", "value": "bound NCoR even at the lowest amounts of GST-NCoR tested"},
      {"measurement": "capacity to repress GAL4-VP16 driven transcription", "setting": "[1]", "value": "as strongly as PML-RAR"}
    ]},
    {"molecule": "B2", "values": [
      {"measurement": "binding to GST-NCoR", "setting": "GST-NCoR", "value": "bound specifically to the beads even at the lowest amounts of GST-NCoR tested"},
      {"measurement": "repression of GAL4-VP16 activation", "setting": "[1]; maximal amount of expression vector, 1 μg", "value": "80-90%"}
    ]}
  ]
}
